Consider 2 molecules from patent US20160115199A1 (AADIGEN, published 2016).

One assay concerns the target cdk2/cyclin A complex (UniProt P24941 1-298; P20248 1-432). As to the kind of experiment: cell-based or functional assay.
Another assay has as its target HIV integrase (HIV-1, UniProt P03367 1160-1447). As to the kind of experiment: cell-based or functional assay.

Where no end group is shown, it is not given here.

As for KKQVRMAHLVLT (also: FITC or Cy5 label, position not given here) [C4 peptide (KKQVRMAHLVLT)], in the assay with cdk2/cyclin A complex, the “IC50 of cell proliferation, Hela cells, C4 delivered by VEPEP-4” value turned out to be 50000 pM and the “IC50 of cell proliferation, MCF7 cells, C4 delivered by VEPEP-4” value worked out at 60000 pM.

Regarding RWTEWEWW (also: cyclic, mode of cyclisation not given here) [PC4 cyclic peptide (RWTEWEWW)], in the assay with HIV integrase, the “IC50 of viral replication (RT activity) on PBMC infected by HIV-1 LAI, PC4D delivered by Short 4” value worked out at 370 pM; the “IC50 of viral replication (RT activity) on PBMC infected by HIV-1 LAI, PC4D delivered by VEPEP-3i” value was found to be 240 pM; the “IC50 of viral replication (RT activity) on PBMC infected by HIV-1 LAI, PC4D delivered by VEPEP-3j” value was determined as 170 pM.
